B1: Azoarcus group I ribozyme (parent)
chain: GUGCCUUGCGCCGGGAAACCACGCAAGGGAUGGUGUCAAAUUCGGCGAAACCUAAGCGCCCGCCCGGGCGUAUGGCAACGCCGAGCCAAGCUUCGGCGCCUGCGCCGAUGAAGGUGUAGAGACUAGACGGCACCCACCUAAGGCAAACGCUAUGGUGAAGGCAUAGUCCAGGGAGUGGCGAAAGUCACACAAACCGG

The variants in the data set derive from B1. The data set is described as follows: reverse-splicing fitness (ratio to wild type); higher = more active; in vitro selection; Mg2+ level not given. In outline:
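An in vitro group I ribozyme library with randomized positions was T7-transcribed and gel-purified. In triplicate, 10 pmol RNA in EPPS pH 7.5 was reacted with 50 pmoles of a 30-nt RNA substrate for 1 h at 37 °C across several added MgCl2 levels (1–48 mM), then stopped with EDTA. Products were reverse transcribed from a substrate-complementary primer, PCR-amplified and sequenced (HiSeq 4000). Fitness is a variant's read proportion after selection over that before, normalised to wild type.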
With A120G A145C C150U C169U, the reverse-splicing fitness turned out to be 0.153. The result for A120G A145C C150U C169A reads 0.123; that for A120G A145C C150U C169G, 0.213. The result for A120U A145C C150A C169U reads 0.0192. The result for A120U A145C C150A C169A reads 0.0021; that for A120U A145C C150A C169G, 0.0132; that for A120G A145U C150U U176C, 0.184. Turning to A120G A145U C150U U176A, the reverse-splicing fitness turned out to be 0.155. Take A120G A145U C150U U176G: the reverse-splicing fitness was 0.0161.

Regarding A120G A145U C169A U176A, the reverse-splicing fitness was found to be 0.113.

With A120G A145U C169A U176G, the reverse-splicing fitness was determined as 0.00923. Next, A120G A145U C169A U176C: 0.166; A120G A145U C150A C169A U176C: 0.035.

For A120G A145U C150A C169A U176G, the reverse-splicing fitness was 0.00487.

For A120G A145U C150A C169A U176A, the reverse-splicing fitness is 0.0229.

As for A120U A145C C150A, the reverse-splicing fitness amounted to 0.116.

In the case of A120U A145C C150G, the reverse-splicing fitness was 0.293. Next, A120G A145C C150A C169G U176A: 0.0447; A120G A145C C150A C169G U176G: 0.00572. Next, A120G A145C C150A C169G U176C: 0.0391; A120G A145G C150G U176A: 0.0423. Next, A120G A145G C150G U176C: 0.0592; A120G A145G C150G U176G: 0.00816; A120G A145C U176A: 0.179. For the variant A120G A145C U176G, the reverse-splicing fitness is 0.0166. Next, A120G A145C U176C: 0.227. Next, A120C C150U C169A: 0.0269; A120C C150U C169G: 0.0172. Next, A120C C150U C169U: 0.345; A120G A145U C150A C169G: 0.0841. Consider A120G A145U C150A C169U, for which the reverse-splicing fitness was 0.0677. Next, A120G A145U C150A C169A: 0.0459; A120U A145C C150A C169A U176C: 0.00175; A120U A145C C150A C169A U176A: 0.00216. The result for A120U A145C C150A C169A U176G reads 0.00203. Turning to A120G A145G C150A U176C, the reverse-splicing fitness was 0.0809. Regarding A120G A145G C150A U176A, the reverse-splicing fitness is 0.0568. Next, A120G A145G C150A U176G: 0.0109. The result for A120G C150A C169A U176C reads 0.0393; that for A120G C150A C169A U176A, 0.0363; that for A120G C150A C169A U176G, 0.00569.

Take A120G A145C C150U C169U U176G: the reverse-splicing fitness is 0.00915. The result for A120G A145C C150U C169U U176A reads 0.0904. Next, A120G A145C C150U C169U U176C: 0.0977; A120G C150G C169G: 0.0731; A120G C150G C169A: 0.0439. Turning to A120G C150G C169U, the reverse-splicing fitness stood at 0.0614. The result for A120G C150G C169A U176C reads 0.0257; that for A120G C150G C169A U176G, 0.0055. The result for A120G C150G C169A U176A reads 0.0128. Next, A120G A145C C169U U176A: 0.181; A120G A145C C169U U176G: 0.0181. With A120G A145C C169U U176C, the reverse-splicing fitness turned out to be 0.19. In the case of A120G A145C C169A, the reverse-splicing fitness was determined as 0.41. Next, A120G A145C C169U: 0.435; A120G A145C C169G: 0.614. The result for A120G A145C C150G U176C reads 0.0556; that for A120G A145C C150G U176G, 0.0061. The result for A120G A145C C150G U176A reads 0.0444.

As for A120G A145G C150U C169A, the reverse-splicing fitness was found to be 0.369. Next, A120G A145G C150U C169U: 0.37. Turning to A120G A145G C150U C169G, the reverse-splicing fitness came to 0.502. In the case of A120C C150U C169G U176G, the reverse-splicing fitness worked out at 0.00427. The result for A120C C150U C169G U176C reads 0.0142; that for A120C C150U C169G U176A, 0.0153.

A120G A145G C150U U176C: the reverse-splicing fitness is 0.212. Next, A120G A145G C150U U176A: 0.151; A120G A145G C150U U176G: 0.0181; A120C C150A C169U U176A: 0.0533. Next, A120C C150A C169U U176G: 0.00663. As for A120C C150A C169U U176C, the reverse-splicing fitness is 0.0627. Next, A120G C150A C169G U176G: 0.00584; A120G C150A C169G U176C: 0.0784. The result for A120G C150A C169G U176A reads 0.0606; that for A120U A145C C150A U176G, 0.0538; that for A120U A145C C150A U176C, 0.061. Next, A120U A145C C150A U176A: 0.0864; A120G A145C C150U U176A: 0.0853.

Regarding A120G A145C C150U U176C, the reverse-splicing fitness amounted to 0.0938. Next, A120G A145C C150U U176G: 0.0108; A120G A145G C150G C169A U176C: 0.0319; A120G A145G C150G C169A U176G: 0.00777. Next, A120G A145G C150G C169A U176A: 0.0181.

Source of the values: the RNAGym collection of RNA variant scans (doi:10.1093/molbev/msab373).
